{
  "source": "the nanobody polyreactivity screen of Harvey et al. (2022)",
  "data": [
    {"experiment": "yeast display, Sf9 membrane polyspecificity reagent, FACS + sequencing; frameworks hold sequencing errors", "method_in_brief": "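Synthetic nanobody libraries on Saccharomyces cerevisiae BJ5465 were galactose-induced for 36–48 hours, stained 1 hour at 4 °C with 10% biotinylated, detergent-solubilized Sf9 membrane reagent and enriched on streptavidin microbeads. FACS then separated cells into low and high (top ~1%) gates by anti-HA (expression) and streptavidin (reagent binding) fluorescence. Genes were colony-PCR amplified, MiSeq 2 × 250 sequenced and CDR-length filtered. A clone's polyreactivity label is that of its gate of origin.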", "values": [
      {"sequence": "QVQLQESGGGMVQAGVSLRLSCAASGTISNAPHMGWYRQAPAKERELVAGITIGGTTYYADSVKGRFTISRDNAKNTVYLQMNSLSPGVTAVYDCAAHSEQYTPFYYWGQGTQVTVSS", "polyreactivity (PSR sort gate)": "low polyreactivity"},
      {"sequence": "QVQLQESGGGPVLAGGSLRLSCAASGTIFVRLDMGWYRQAPGKEREFVATIGSGSSTYYADSVKGSFTISRDNVKNTVYLQMNSLKPEDTAVYYCAVSAAEQSRHYYWDQGTQVTVSS", "polyreactivity (PSR sort gate)": "low polyreactivity"},
      {"sequence": "QVQLQESGGGQVHAGGSLRLSCAASGTIFLYAFMGWYRQPPAKERELVAAIDVGTTTNYADSVKGRFTISRDNEKNTVYLQMNSLKPEDTAVYYCAANLGYLDDLGYWGQGTQVTVSS", "polyreactivity (PSR sort gate)": "low polyreactivity"},
      {"sequence": "QVQLQESGGGQVQAGGSLRLSCAASGYMSTHYFMGWYRQSPGKDREFVAGISNGSITNYADSVKGRFTISRDNARNTVYLQMNSLKPEYTAVYYGAAFEWTYVRFGYWGQGTQVTVSG", "polyreactivity (PSR sort gate)": "high polyreactivity"},
      {"sequence": "QVQLQESGGLVQAGGSLRLSCAASGSISGRNVMGWYRQAPGQEREFVASITDGSSTNYADSVKGRFTISRDNAKNTVYLQMNSLKPKDTAVYYCAAYAQRAKSFGYWGRGTQVTVSS", "polyreactivity (PSR sort gate)": "low polyreactivity"},
      {"sequence": "QVQLQESGGLVQAGVSLRLSCAASGSISGRNVMGWYLQAPVKQREFVASITDGSSSNYADSVKGRFTISRDNAKNTVYLQMNSLKPTDTAVYYCAAYGLRPKSFGNWGGGTQVTVSS", "polyreactivity (PSR sort gate)": "low polyreactivity"},
      {"sequence": "QVQLQESGGRLVQAGDSQRLSCASSGNIFRFTDMGWYRQAPGKERELVAAINAGSTTYYADSVKGRFTISRDNAKNTVYLQMNSLKPEDTAFYHCNDPPVYSSTRYGYWGQGTQVTVAS", "polyreactivity (PSR sort gate)": "high polyreactivity"},
      {"sequence": "QVQLQESGGVLVQAGGSLRLSCAASGYISWYSEMGWYRKAPCKEREFVATNTCGTTTNYAVSVKGRFTISRDNAKNTVYLQKNSLKPEDTAVYYCAVHDARHYEFDYWGQGTQVTVSS", "polyreactivity (PSR sort gate)": "high polyreactivity"},
      {"sequence": "QVQLQESGRGLVQAGGSLRLSCAASGTISQEDWMGWYRQAPGKEREFVAAIGLGSNTNYADSLKGRFTISRDNAKNTVYLQMNSLKPEDTAVYYCAVSVWQYSDHVYRGQGTQVTVSS", "polyreactivity (PSR sort gate)": "low polyreactivity"},
      {"sequence": "QVQLQESGSGLVQARGSLRLSCAASGAIFPAYLMGWYRHAPGKERELVAGISYGSITYCADSVKGRFNISRDNAKNTVYLQRNSLKPEDTAVYYCAVWRPGGDEYYYWGQGTQVTVSS", "polyreactivity (PSR sort gate)": "low polyreactivity"},
      {"sequence": "QVQLQESNGGLVQAGGCLRLSCAASGNIFDADIMGWFRKAPGIERELVASITDGGSTNYADSVKGRFTINRDNALNTVYLQMYSLKPEDTAVYYCAVSYKGWYQLGYWGQGTQVTVSS", "polyreactivity (PSR sort gate)": "high polyreactivity"},
      {"sequence": "QVQLQESVGGLVQAGGILRLSCAACGNIFPSAVMGWYRQALGKEREFVATINSGSNTYYADSVKGRFTISRDNATNTVYLQMNSLKLEDTAVYYCAAYFKLPAWHTYWGQGTQVTVSS", "polyreactivity (PSR sort gate)": "low polyreactivity"},
      {"sequence": "QVQLQESVGGLVQAGGSLRLSCAASGTIFWGDDMGWYRQAPGKERELVASINDGSITYYADSVKGRFTISRDNAKNTVYLQMNSLKPEDTAVYYCAVRIAVVKSYLIYNYWGQGTQVTVSS", "polyreactivity (PSR sort gate)": "high polyreactivity"},
      {"sequence": "QVQLQETGGGLVQAGGILGCAASGNISTRSEMGWYRQATGKEREFVATINSGGITNYADSVKGRFTISRDNAKNTVYLRMNSLKPEDTAVYYRAVYGYFSDPYDYWGQGTQVTVSS", "polyreactivity (PSR sort gate)": "low polyreactivity"},
      {"sequence": "QVQLQGSGGGLVQAGGSLRLSCAASGNIFDADIMGWYRQAPGKESELVASITDGGSTNYADSVKGRFTISRDNAKNTVYLQMNSLKQEDTAVYYCAAIAYPDIPTYFDYDSACFYWSQGTQVTVSS", "polyreactivity (PSR sort gate)": "high polyreactivity"},
      {"sequence": "QVQLQGSGGGLVQAGGSLRLSCAASGNIFDADIMGWYRQAPGKESELVASITDGGSTNYADSVKGRFTISRDNAKNTVYLQMNSLKQVDTAVYYCAAIAYPDIPTYFDYDSDCFYWSQGTQVTVSS", "polyreactivity (PSR sort gate)": "high polyreactivity"},
      {"sequence": "QVQLQGSGGGLVQAGVSLRLSCAASGYIFQNVPMGWNRHAPGKERELVAGIDNATSTNYADSVNGRFTISLDNAKNTVYLQMNSLKPEDTAVYYCAAAGQADNTLGYWGQGTQVTVSS", "polyreactivity (PSR sort gate)": "low polyreactivity"},
      {"sequence": "QVQLQVSGGDLVQAGGSLRLSCEASGTIYGLTSMGWYRQAPGKEREFVAAITDGGNTNYADSVKGRFTISRDNAKNTVYLQMISLKPEDTGVYYCAVLFSDDAYYAYWGQGTQVTVSS", "polyreactivity (PSR sort gate)": "low polyreactivity"},
      {"sequence": "QVQLRESGGGLVQAGGSLSLSCAASGTIFYSRYMGWYRQAPGKEREFVASNSSGGNTNYADSVKGRFTISRDNAKNTVYLQMNSLKPEVSAVYYCEVNTGLITTFPYWGQGTQVTVSS", "polyreactivity (PSR sort gate)": "high polyreactivity"},
      {"sequence": "QVQLVASGGALVQAGGSLRLSCAASGRISTYTMGWYRQGPGKERELVATISTDASTNYADSVKGRFTISRDNAKNTVYLQMNSLKPEATAVYYCAAVIVNQDYDYWGQGTQLTVSS", "polyreactivity (PSR sort gate)": "low polyreactivity"},
      {"sequence": "QVQLVASGGGFVQAGGSLRVSCAASGGTILGNAMGWDRQAPGKERELVATITARVGSTYYADSVKGRFTISRDNAKNTVYLQMNSLKPEDTAVYYCAARKVWGYTYGYPYYYWGQGTQVTVSS", "polyreactivity (PSR sort gate)": "high polyreactivity"},
      {"sequence": "QVQLVASGGGIDQAGGSHRLSCAASGSIFPAYTMGWYRPAPGKERELVAAITRRGGSTYYADSVKGRFTISRDNAKNTVYLQMNSLKPEDSAVYYCAADGFNSDDTPSWYWGEYWGPGTQVTVSS", "polyreactivity (PSR sort gate)": "low polyreactivity"},
      {"sequence": "QVQLVASGGGLVHAGGSLRLSCAASGGTFWDYAMGWSRQAPGKERELVAVISDSGGTYYADSVKGRFTISRDNAKNTVYLQMNSLKPEDTAVYYCAAGSLTLSTSTVWFAYDYWGQGTQVTVSS", "polyreactivity (PSR sort gate)": "high polyreactivity"},
      {"sequence": "QVQLVASGGGLVQAGASLRLSCAASGFTFSLYGLGGYRQAPGKERELVAALRSGGSTNYADSVKGRFTISRDNAKNTVYLQLNSLKPEDTAVYYCATDIHSVLNNRVKHDYDYWGQGTQVTVSS", "polyreactivity (PSR sort gate)": "low polyreactivity"},
      {"sequence": "QVQLVASGGGLVQAGGSLRISCAASGRTITPYAMGWYRQAPGKERELVATISSGTSPNYADSVKGRFTISRDNAKNTVYLQMNSLIPEDTAVYYCAADGYTYKFDYWGQGTQVTVSS", "polyreactivity (PSR sort gate)": "low polyreactivity"},
      {"sequence": "QVQLVASGGGLVQAGGSLRLSCAASGFIFWYYAMGWYRQAPGKERELVATITSGGSTTYADSVKGRFTISRDNAKNTVYLQMYSLKPEDTAVYYCAAKGISRYDWGQGTQVTVSS", "polyreactivity (PSR sort gate)": "low polyreactivity"},
      {"sequence": "QVQLVASGGGLVQAGGSLRLSCAASGFTFYYYAMGWYRKAPGKERELVAGISGRGGTTYYADSVKGRFTISRDNAKNTFYLQLNSLKPEDTAVYDCAARKVRARSKFEYWGQGNQVTVSS", "polyreactivity (PSR sort gate)": "high polyreactivity"},
      {"sequence": "QVQLVASGGGLVQAGGSLRLSCAASGRTFKYNTMGWYRQAPGKERELVAVISRSGGRTYYADSVKGRFTISRDNAKNTVYLQMNSLKPEDTAVYYCAKGIPYADPQSAYDDYWGQGTQVTVSS", "polyreactivity (PSR sort gate)": "high polyreactivity"},
      {"sequence": "QVQLVASGGGLVQAGGSLRLSCAASGSIFIYYTMGWYRQAPGKERELVAAINRGGSTYYADSVKGRFTISRDNAKNTVYLQMNSLKPEDTAVYYCNARYYRLPYWDAVKYDYWGQGTQVTVSS", "polyreactivity (PSR sort gate)": "low polyreactivity"},
      {"sequence": "QVQLVASGGGLVQAGGSLRLSCAASGSIFTHNALGWSRQAPGNERALVAAISSGGSTNYADSVKGRFTISRDNAKNTVYLQMNSLKPEDTAVYYCAKSIDGWYWRRRRYDYWGQGTQVTVSS", "polyreactivity (PSR sort gate)": "low polyreactivity"},
      {"sequence": "QVQLVASGGGLVQEGGSLRLSCAASGSTFYVNAMGWYRPAAGKERELVAAISLSGGRTYYADSVKGRFTISRDNAKNPVYLQMNSLNQEDTAVYYCAARDSARYYWGQGTQVTVSS", "polyreactivity (PSR sort gate)": "high polyreactivity"},
      {"sequence": "QVQLVDAGGRLVQAGGSLRLSCAASGRIFAYYAMGWSRQAPGKDRELVSGISQRGSRTYYADSVKGRFTISRDNEKNTVYLQMNSLKPEDTAVYYCNTQRWGSGVGSLMDYWGQGTQVTVSS", "polyreactivity (PSR sort gate)": "high polyreactivity"},
      {"sequence": "QVQLVDSAGGLVQAGGSLRLICAASGYTQIKNAMGVSRHAPGKERELVAAISSGGSTKYADSVKGRFTISRDNAKNTVYLQMNSLKPEDTAVYYCAKGRVVPYRRYTRIHMYHWGLGTQVTVSS", "polyreactivity (PSR sort gate)": "high polyreactivity"},
      {"sequence": "QVQLVDSAGGLVQAGGSLRLSCDAYGSNFGVNAMGWYRQAPGKERELVAIITSTTYADSVKGRFTISRDNAKNTVYLQMNSLKREDTAVYYCAIDQERVTKGRFYLLEYDWGHGTQVTVSS", "polyreactivity (PSR sort gate)": "low polyreactivity"},
      {"sequence": "QVQLVDSAGGLVQAGGSLSLSCAASGITFVSKVMGWYRQAPGKEREFVAAITGRGDSTYADSVKGRFTNSRDNAKNCVYLQMNSLKPEDTAVYYCAAEYSVPYRGWDGYEYWGQGTQVTVSS", "polyreactivity (PSR sort gate)": "low polyreactivity"},
      {"sequence": "QVQLVDSCGVLVQAGGSLRLSCAASGITFNLYAMGWYRQAPGKERELVAAISNVGSTKYADSVKGRFTISRDNAKNTVYLQMNSLKPEDTAVYYCAAAQWAYWLLYNYWGQGTQVTVSS", "polyreactivity (PSR sort gate)": "low polyreactivity"},
      {"sequence": "QVQLVDSGGCLVHAGASLRLSCAASGGIFRTYAMGWARQAAGKERELVAAITFSAGSTFYADSVKGRYTISRDNAKNTVYLQMNSLKPEDTAVYDCATPGYILGLYQYWHHYDYWGQGTQVTVSS", "polyreactivity (PSR sort gate)": "low polyreactivity"},
      {"sequence": "QVQLVDSGGCLVQAGGSLRLSCASSGRIIAHYAMGWYRQSPGKESELVAAISTRGGSTYYADSVKGRFTISRDNEKNTVYLQMNSLKPEDTAVYYCAAKSNNIATMDYWGQGTQVTVSS", "polyreactivity (PSR sort gate)": "low polyreactivity"},
      {"sequence": "QVQLVDSGGGLDQAGGSLRLSCAASGSNLRLKAMGWYRQAPGKERELVADITRAGSTYYADSVKGRFTISRDNAKNTVYLQMNSLKPEDTAVYYCAADAYTGQIPYYYFEHYYWGHGTQVTVSS", "polyreactivity (PSR sort gate)": "high polyreactivity"},
      {"sequence": "QVQLVDSGGGLFQAGGSLSLICAASASKYDINAMGRYRQAPGKETELVADISWSGGRTYYADSVKGRFTISRDNAKNTVYLKMNSLKPEETAVYYCNAQDSRFWYAEYDSWGQGTQVTVSS", "polyreactivity (PSR sort gate)": "low polyreactivity"},
      {"sequence": "QVQLVDSGGGLVKAGGSLRLSCAASGSTFDTNVMGWYRPAPGKERELVAAIDVSGGSTYYADSVKGRFTISRDNAKNYVYLQMYSLKPEDTAVFYSAAEDGLYGMDYWGQGSQVTVSS", "polyreactivity (PSR sort gate)": "low polyreactivity"},
      {"sequence": "QVQLVDSGGGLVPSGGSLRISCAASGRIFYPYAMGWYRQAPGKEREVVATITRTGSTYYADSVKGRFTISRDNAMNTVYLQMNSLKPEDTAVYYCNAGIYRPRVDYWGQGTQVTVSS", "polyreactivity (PSR sort gate)": "high polyreactivity"},
      {"sequence": "QVQLVDSGGGLVQAGASLRLRCAASVLTLYANAMGRYRQAPGKERELVAGIDNGGSTSYADSVKGRFTISRDNAKKTVYLQKNSLKPEDTAVYYCAAQRDSVGGRHYAQRWIYLMYYWGQGTQVTVSS", "polyreactivity (PSR sort gate)": "low polyreactivity"}
    ]}
  ]
}
